Assay results: patent publication US20180155451A1 (published 2018)

T1: FcγRIIa H (human, UniProt P12318 34-217)
T1 construct: extracellular domain; also called FcgRIIa H type; 2aH; not shown: His tag at the C terminus
T1 sequence (looked up): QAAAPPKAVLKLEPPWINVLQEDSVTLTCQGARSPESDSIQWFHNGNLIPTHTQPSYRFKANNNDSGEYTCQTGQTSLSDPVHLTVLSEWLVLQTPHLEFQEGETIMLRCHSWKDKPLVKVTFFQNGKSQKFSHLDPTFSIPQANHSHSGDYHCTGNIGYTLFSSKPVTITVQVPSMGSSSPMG


Each binder was assayed against T1, FcγRIIa H (assay: SPR Biacore, relative binding).

Ho/Con_2aH | Binder
126 % of GpH7-B3/GpL16-k0 (=100) | GpH7-B3 variant I332_15Y/GpL16-k0 (antibody, human IgG1, kappa, also called Ho Ab I332_15Y) heavy: not shown light: DIVMTQSPLSLPVTPGEPASISCQASESLVHSNRNTYLHWYLQKPGQSPQLLIYKVSNRFSGVPDRFSGSGSGTDFTLKISRVEAEDVGVYYCSQNTHVPPTFGQGTKVEIERTVAAPSVFIFPPSDEQLKSGTASVVCLLNNFYPREAKVQWKVDNALQSGNSQESVTEQDSKDSTYSLSSTLTLSKADYEKHKVYACEVTHQGLSSPVTKSFNRGEC
103 % of GpH7-B3/GpL16-k0 (=100) | GpH7-B3 variant K334_08L/GpL16-k0 (antibody, human IgG1, kappa, also called Ho Ab K334_08L) heavy: not shown light: DIVMTQSPLSLPVTPGEPASISCQASESLVHSNRNTYLHWYLQKPGQSPQLLIYKVSNRFSGVPDRFSGSGSGTDFTLKISRVEAEDVGVYYCSQNTHVPPTFGQGTKVEIERTVAAPSVFIFPPSDEQLKSGTASVVCLLNNFYPREAKVQWKVDNALQSGNSQESVTEQDSKDSTYSLSSTLTLSKADYEKHKVYACEVTHQGLSSPVTKSFNRGEC
100 % of GpH7-B3/GpL16-k0 (=100) | GpH7-B3 variant L328_06M/GpL16-k0 (antibody, human IgG1, kappa, also called Ho Ab L328_06M) heavy: not shown light: DIVMTQSPLSLPVTPGEPASISCQASESLVHSNRNTYLHWYLQKPGQSPQLLIYKVSNRFSGVPDRFSGSGSGTDFTLKISRVEAEDVGVYYCSQNTHVPPTFGQGTKVEIERTVAAPSVFIFPPSDEQLKSGTASVVCLLNNFYPREAKVQWKVDNALQSGNSQESVTEQDSKDSTYSLSSTLTLSKADYEKHKVYACEVTHQGLSSPVTKSFNRGEC
111 % of GpH7-B3/GpL16-k0 (=100) | GpH7-B3 variant K334_03V/GpL16-k0 (antibody, human IgG1, kappa, also called Ho Ab K334_03V) heavy: not shown light: DIVMTQSPLSLPVTPGEPASISCQASESLVHSNRNTYLHWYLQKPGQSPQLLIYKVSNRFSGVPDRFSGSGSGTDFTLKISRVEAEDVGVYYCSQNTHVPPTFGQGTKVEIERTVAAPSVFIFPPSDEQLKSGTASVVCLLNNFYPREAKVQWKVDNALQSGNSQESVTEQDSKDSTYSLSSTLTLSKADYEKHKVYACEVTHQGLSSPVTKSFNRGEC
101 % of GpH7-B3/GpL16-k0 (=100) | GpH7-B3 variant I336_08L/GpL16-k0 (antibody, human IgG1, kappa, also called Ho Ab I336_08L) heavy: not shown light: DIVMTQSPLSLPVTPGEPASISCQASESLVHSNRNTYLHWYLQKPGQSPQLLIYKVSNRFSGVPDRFSGSGSGTDFTLKISRVEAEDVGVYYCSQNTHVPPTFGQGTKVEIERTVAAPSVFIFPPSDEQLKSGTASVVCLLNNFYPREAKVQWKVDNALQSGNSQESVTEQDSKDSTYSLSSTLTLSKADYEKHKVYACEVTHQGLSSPVTKSFNRGEC
113 % of GpH7-B3/GpL16-k0 (=100) | GpH7-B3 variant K326_09D/GpL16-k0 (antibody, human IgG1, kappa, also called Ho Ab K326_09D) heavy: not shown light: DIVMTQSPLSLPVTPGEPASISCQASESLVHSNRNTYLHWYLQKPGQSPQLLIYKVSNRFSGVPDRFSGSGSGTDFTLKISRVEAEDVGVYYCSQNTHVPPTFGQGTKVEIERTVAAPSVFIFPPSDEQLKSGTASVVCLLNNFYPREAKVQWKVDNALQSGNSQESVTEQDSKDSTYSLSSTLTLSKADYEKHKVYACEVTHQGLSSPVTKSFNRGEC
112 % of GpH7-B3/GpL16-k0 (=100) | GpH7-B3 variant L235_20W/GpL16-k0 (antibody, human IgG1, kappa, also called Ho Ab L235_20W) heavy: not shown light: DIVMTQSPLSLPVTPGEPASISCQASESLVHSNRNTYLHWYLQKPGQSPQLLIYKVSNRFSGVPDRFSGSGSGTDFTLKISRVEAEDVGVYYCSQNTHVPPTFGQGTKVEIERTVAAPSVFIFPPSDEQLKSGTASVVCLLNNFYPREAKVQWKVDNALQSGNSQESVTEQDSKDSTYSLSSTLTLSKADYEKHKVYACEVTHQGLSSPVTKSFNRGEC
118 % of GpH7-B3/GpL16-k0 (=100) | GpH7-B3 variant I332_18N/GpL16-k0 (antibody, human IgG1, kappa, also called Ho Ab I332_18N) heavy: not shown light: DIVMTQSPLSLPVTPGEPASISCQASESLVHSNRNTYLHWYLQKPGQSPQLLIYKVSNRFSGVPDRFSGSGSGTDFTLKISRVEAEDVGVYYCSQNTHVPPTFGQGTKVEIERTVAAPSVFIFPPSDEQLKSGTASVVCLLNNFYPREAKVQWKVDNALQSGNSQESVTEQDSKDSTYSLSSTLTLSKADYEKHKVYACEVTHQGLSSPVTKSFNRGEC
101 % of GpH7-B3/GpL16-k0 (=100) | GpH7-B3 variant K334_16H/GpL16-k0 (antibody, human IgG1, kappa, also called Ho Ab K334_16H) heavy: not shown light: DIVMTQSPLSLPVTPGEPASISCQASESLVHSNRNTYLHWYLQKPGQSPQLLIYKVSNRFSGVPDRFSGSGSGTDFTLKISRVEAEDVGVYYCSQNTHVPPTFGQGTKVEIERTVAAPSVFIFPPSDEQLKSGTASVVCLLNNFYPREAKVQWKVDNALQSGNSQESVTEQDSKDSTYSLSSTLTLSKADYEKHKVYACEVTHQGLSSPVTKSFNRGEC
118 % of GpH7-B3/GpL16-k0 (=100) | GpH7-B3 variant K326_14T/GpL16-k0 (antibody, human IgG1, kappa, also called Ho Ab K326_14T) heavy: not shown light: DIVMTQSPLSLPVTPGEPASISCQASESLVHSNRNTYLHWYLQKPGQSPQLLIYKVSNRFSGVPDRFSGSGSGTDFTLKISRVEAEDVGVYYCSQNTHVPPTFGQGTKVEIERTVAAPSVFIFPPSDEQLKSGTASVVCLLNNFYPREAKVQWKVDNALQSGNSQESVTEQDSKDSTYSLSSTLTLSKADYEKHKVYACEVTHQGLSSPVTKSFNRGEC
110 % of GpH7-B3/GpL16-k0 (=100) | GpH7-B3 variant K334_15Y/GpL16-k0 (antibody, human IgG1, kappa, also called Ho Ab K334_15Y) heavy: not shown light: DIVMTQSPLSLPVTPGEPASISCQASESLVHSNRNTYLHWYLQKPGQSPQLLIYKVSNRFSGVPDRFSGSGSGTDFTLKISRVEAEDVGVYYCSQNTHVPPTFGQGTKVEIERTVAAPSVFIFPPSDEQLKSGTASVVCLLNNFYPREAKVQWKVDNALQSGNSQESVTEQDSKDSTYSLSSTLTLSKADYEKHKVYACEVTHQGLSSPVTKSFNRGEC
105 % of GpH7-B3/GpL16-k0 (=100) | GpH7-B3 variant K334_14T/GpL16-k0 (antibody, human IgG1, kappa, also called Ho Ab K334_14T) heavy: not shown light: DIVMTQSPLSLPVTPGEPASISCQASESLVHSNRNTYLHWYLQKPGQSPQLLIYKVSNRFSGVPDRFSGSGSGTDFTLKISRVEAEDVGVYYCSQNTHVPPTFGQGTKVEIERTVAAPSVFIFPPSDEQLKSGTASVVCLLNNFYPREAKVQWKVDNALQSGNSQESVTEQDSKDSTYSLSSTLTLSKADYEKHKVYACEVTHQGLSSPVTKSFNRGEC
134 % of GpH7-B3/GpL16-k0 (=100) | GpH7-B3 variant L328_02A/GpL16-k0 (antibody, human IgG1, kappa, also called Ho Ab L328_02A) heavy: not shown light: DIVMTQSPLSLPVTPGEPASISCQASESLVHSNRNTYLHWYLQKPGQSPQLLIYKVSNRFSGVPDRFSGSGSGTDFTLKISRVEAEDVGVYYCSQNTHVPPTFGQGTKVEIERTVAAPSVFIFPPSDEQLKSGTASVVCLLNNFYPREAKVQWKVDNALQSGNSQESVTEQDSKDSTYSLSSTLTLSKADYEKHKVYACEVTHQGLSSPVTKSFNRGEC
116 % of GpH7-B3/GpL16-k0 (=100) | GpH7-B3 variant K334_07I/GpL16-k0 (antibody, human IgG1, kappa, also called Ho Ab K334_07I) heavy: not shown light: DIVMTQSPLSLPVTPGEPASISCQASESLVHSNRNTYLHWYLQKPGQSPQLLIYKVSNRFSGVPDRFSGSGSGTDFTLKISRVEAEDVGVYYCSQNTHVPPTFGQGTKVEIERTVAAPSVFIFPPSDEQLKSGTASVVCLLNNFYPREAKVQWKVDNALQSGNSQESVTEQDSKDSTYSLSSTLTLSKADYEKHKVYACEVTHQGLSSPVTKSFNRGEC
119 % of GpH7-B3/GpL16-k0 (=100) | GpH7-B3 variant I332_16H/GpL16-k0 (antibody, human IgG1, kappa, also called Ho Ab I332_16H) heavy: not shown light: DIVMTQSPLSLPVTPGEPASISCQASESLVHSNRNTYLHWYLQKPGQSPQLLIYKVSNRFSGVPDRFSGSGSGTDFTLKISRVEAEDVGVYYCSQNTHVPPTFGQGTKVEIERTVAAPSVFIFPPSDEQLKSGTASVVCLLNNFYPREAKVQWKVDNALQSGNSQESVTEQDSKDSTYSLSSTLTLSKADYEKHKVYACEVTHQGLSSPVTKSFNRGEC
100 % of GpH7-B3/GpL16-k0 (=100) | GpH7-B3 variant I336_06M/GpL16-k0 (antibody, human IgG1, kappa, also called Ho Ab I336_06M) heavy: not shown light: DIVMTQSPLSLPVTPGEPASISCQASESLVHSNRNTYLHWYLQKPGQSPQLLIYKVSNRFSGVPDRFSGSGSGTDFTLKISRVEAEDVGVYYCSQNTHVPPTFGQGTKVEIERTVAAPSVFIFPPSDEQLKSGTASVVCLLNNFYPREAKVQWKVDNALQSGNSQESVTEQDSKDSTYSLSSTLTLSKADYEKHKVYACEVTHQGLSSPVTKSFNRGEC
100 % of GpH7-B3/GpL16-k0 (=100) | GpH7-B3 variant K326_19Q/GpL16-k0 (antibody, human IgG1, kappa, also called Ho Ab K326_19Q) heavy: not shown light: DIVMTQSPLSLPVTPGEPASISCQASESLVHSNRNTYLHWYLQKPGQSPQLLIYKVSNRFSGVPDRFSGSGSGTDFTLKISRVEAEDVGVYYCSQNTHVPPTFGQGTKVEIERTVAAPSVFIFPPSDEQLKSGTASVVCLLNNFYPREAKVQWKVDNALQSGNSQESVTEQDSKDSTYSLSSTLTLSKADYEKHKVYACEVTHQGLSSPVTKSFNRGEC
114 % of GpH7-B3/GpL16-k0 (=100) | GpH7-B3 variant I332_19Q/GpL16-k0 (antibody, human IgG1, kappa, also called Ho Ab I332_19Q) heavy: not shown light: DIVMTQSPLSLPVTPGEPASISCQASESLVHSNRNTYLHWYLQKPGQSPQLLIYKVSNRFSGVPDRFSGSGSGTDFTLKISRVEAEDVGVYYCSQNTHVPPTFGQGTKVEIERTVAAPSVFIFPPSDEQLKSGTASVVCLLNNFYPREAKVQWKVDNALQSGNSQESVTEQDSKDSTYSLSSTLTLSKADYEKHKVYACEVTHQGLSSPVTKSFNRGEC
101 % of GpH7-B3/GpL16-k0 (=100) | GpH7-B3 variant K326_10E/GpL16-k0 (antibody, human IgG1, kappa, also called Ho Ab K326_10E) heavy: not shown light: DIVMTQSPLSLPVTPGEPASISCQASESLVHSNRNTYLHWYLQKPGQSPQLLIYKVSNRFSGVPDRFSGSGSGTDFTLKISRVEAEDVGVYYCSQNTHVPPTFGQGTKVEIERTVAAPSVFIFPPSDEQLKSGTASVVCLLNNFYPREAKVQWKVDNALQSGNSQESVTEQDSKDSTYSLSSTLTLSKADYEKHKVYACEVTHQGLSSPVTKSFNRGEC
103 % of GpH7-B3/GpL16-k0 (=100) | GpH7-B3 variant K334_04F/GpL16-k0 (antibody, human IgG1, kappa, also called Ho Ab K334_04F) heavy: not shown light: DIVMTQSPLSLPVTPGEPASISCQASESLVHSNRNTYLHWYLQKPGQSPQLLIYKVSNRFSGVPDRFSGSGSGTDFTLKISRVEAEDVGVYYCSQNTHVPPTFGQGTKVEIERTVAAPSVFIFPPSDEQLKSGTASVVCLLNNFYPREAKVQWKVDNALQSGNSQESVTEQDSKDSTYSLSSTLTLSKADYEKHKVYACEVTHQGLSSPVTKSFNRGEC
131 % of GpH7-B3/GpL16-k0 (=100) | GpH7-B3 variant L328_13S/GpL16-k0 (antibody, human IgG1, kappa, also called Ho Ab L328_13S) heavy: not shown light: DIVMTQSPLSLPVTPGEPASISCQASESLVHSNRNTYLHWYLQKPGQSPQLLIYKVSNRFSGVPDRFSGSGSGTDFTLKISRVEAEDVGVYYCSQNTHVPPTFGQGTKVEIERTVAAPSVFIFPPSDEQLKSGTASVVCLLNNFYPREAKVQWKVDNALQSGNSQESVTEQDSKDSTYSLSSTLTLSKADYEKHKVYACEVTHQGLSSPVTKSFNRGEC
101 % of GpH7-B3/GpL16-k0 (=100) | GpH7-B3 variant K326_06M/GpL16-k0 (antibody, human IgG1, kappa, also called Ho Ab K326_06M) heavy: not shown light: DIVMTQSPLSLPVTPGEPASISCQASESLVHSNRNTYLHWYLQKPGQSPQLLIYKVSNRFSGVPDRFSGSGSGTDFTLKISRVEAEDVGVYYCSQNTHVPPTFGQGTKVEIERTVAAPSVFIFPPSDEQLKSGTASVVCLLNNFYPREAKVQWKVDNALQSGNSQESVTEQDSKDSTYSLSSTLTLSKADYEKHKVYACEVTHQGLSSPVTKSFNRGEC
